Measured values taken from patent US20120100139A1 (APTEVO RESEARCH AND DEVELOPMENT, published 2012).
Values belong to the molecule of their own block, whether it stands above or below them.

Assays:
CD86-mIgG (Ancell, Inc) [1] = target: CD86-mIgG (Ancell, Inc) (UniProt P42081); test: SPR (BIAcore T100), CD86-mIgG immobilized on CM5; first site
CD86-mIgG (Ancell, Inc) [2] = target: CD86-mIgG (Ancell, Inc) (UniProt P42081); test: SPR (BIAcore T100), CD86-mIgG immobilized on CM5; steady-state equilibrium fit
CD86-mIgG (Ancell, Inc) [3] = target: CD86-mIgG (Ancell, Inc) (UniProt P42081); test: SPR (BIAcore T100), CD86-mIgG immobilized on CM5; second site
[4] = target: T1, Murine CD86-mIgG (R&D Systems, Inc) (murine, UniProt P42082 24-244, limits assumed); test: SPR (BIAcore T100), murine CD86-mIgG immobilized on CM5; bivalent analyte model, first site
T1 construct: also called muCD86
T1 sequence (looked up): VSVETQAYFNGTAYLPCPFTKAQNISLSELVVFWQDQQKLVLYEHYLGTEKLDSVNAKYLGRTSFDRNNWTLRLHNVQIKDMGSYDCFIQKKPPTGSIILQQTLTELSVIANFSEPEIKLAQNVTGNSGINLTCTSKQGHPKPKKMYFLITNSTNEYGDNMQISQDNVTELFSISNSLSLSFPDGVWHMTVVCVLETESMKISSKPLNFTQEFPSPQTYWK
Method: (§1) SPR measurements were performed on a BIAcore™ T100 SPR (Pharmacia Biotech AB, Uppsala) using HBS-EP+ (GE Healthcare) as a running buffer. Murine CD86-mIgG (25 μg/mL in 10 mM sodium acetate, pH 4.0, R&D Systems, Inc) was directly immobilized onto a CM5 chip using standard amine coupling chemistry (Biacore Amine Coupling Kit, GE Healthcare), with final immobilization levels of 150, 493, and 746 Ru. CTLA4-containing constructs were injected for 150 seconds, at a flow rate of 10 μl/min, in a series of concentrations from 4 nM to 8 μM. Dissociation was monitored for 600 seconds (CTLA4 constructs) or 1200 seconds (GL1 constructs), and the surface was regenerated by injecting 10 mM glycine, pH 1.7, for 60 seconds. […] Data were analyzed using BiaEvaluation for the T100 software (version 2.0.1, GE Healthcare).

CD86-mIgG (Ancell, Inc) [5] = target: T2, CD86-mIgG (Ancell, Inc) (UniProt P42081 24-247, limits assumed); test: SPR (BIAcore T100), CD86-mIgG immobilized on CM5; steady-state equilibrium fit
T2 construct: Bought reagent
T2 sequence (looked up): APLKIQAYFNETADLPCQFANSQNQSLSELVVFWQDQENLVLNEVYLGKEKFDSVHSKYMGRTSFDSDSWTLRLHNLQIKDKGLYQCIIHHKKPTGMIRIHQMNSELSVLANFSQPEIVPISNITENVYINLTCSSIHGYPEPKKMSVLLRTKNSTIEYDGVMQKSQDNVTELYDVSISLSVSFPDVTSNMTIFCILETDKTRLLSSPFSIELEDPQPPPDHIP

[6] = target: T3, CD80-mIg (Ancell Catalog #510-020) (UniProt P33681 35-242); test: SPR (BIAcore T100), CD80-mIgG immobilized on CM5; bivalent analyte model, second site
T3 construct: Bought reagent; also called CD80-mIgG; sCD80
T3 sequence (looked up): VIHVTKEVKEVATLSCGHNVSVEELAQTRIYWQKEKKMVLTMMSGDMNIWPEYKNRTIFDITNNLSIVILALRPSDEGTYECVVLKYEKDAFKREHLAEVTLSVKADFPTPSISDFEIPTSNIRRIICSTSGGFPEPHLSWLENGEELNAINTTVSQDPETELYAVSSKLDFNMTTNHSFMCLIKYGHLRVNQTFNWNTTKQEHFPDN
Method: (§2) Surface plasmon resonance (SPR) measurements were performed on a BIAcore™ T100 SPR (Pharmacia Biotech AB, Uppsala) using HBS-EP+ (GE Healthcare) as a running buffer. […] CTLA4-containing constructs were injected for 150 seconds, at a flow rate of 10 μl/min, in a series of concentrations from 5 nM to 1 μM. Dissociation was monitored for 600 seconds, and the surface was regenerated by injecting 50 mM sodium citrate, 500 mM sodium chloride, pH 4.0, for 60 seconds. […] Data were analyzed using BiaEvaluation for the T100 software (version 2.0.1, GE Healthcare).

[7] = target: T1, Murine CD86-mIgG (R&D Systems, Inc); test: SPR (BIAcore T100), murine CD86-mIgG immobilized on CM5; bivalent analyte model, second site
Method: as §1

CD86-mIgG (Ancell, Inc) [8] = target: T2, CD86-mIgG (Ancell, Inc); test: SPR (BIAcore T100), CD86-mIgG immobilized on CM5; bivalent analyte model, first site
Method: SPR measurements were performed on a BIAcore™ T100 SPR (Pharmacia Biotech AB, Uppsala) using HBS-EP+ (GE Healthcare) as a running buffer. […] CTLA4-containing constructs were injected for 150 seconds, at a flow rate of 10 μl/min, in a series of concentrations from 4 nM to 10 μM. Dissociation was monitored for 600 seconds, and the surface was either regenerated by injecting 50 mM sodium citrate, 500 mM sodium chloride, pH 5.0, for 60 seconds (wild type CTLA4) or 10 mM glycine, pH 1.7 (L104E A29Y CTLA4). […] Data were analyzed using BiaEvaluation for the T100 software (version 2.0.1, GE Healthcare).

[9] = target: T3, CD80-mIg (Ancell Catalog #510-020); test: SPR (BIAcore T100), CD80-mIgG immobilized on CM5; bivalent analyte model, first site
Method: as §2

[10] = target: T1, Murine CD86-mIgG (R&D Systems, Inc); test: SPR (BIAcore T100), murine CD86-mIgG immobilized on CM5; steady-state equilibrium, multiple Rmax fit
Method: as §1

[11] = target: T3, CD80-mIg (Ancell Catalog #510-020); test: SPR (BIAcore T100), CD80-mIgG immobilized on CM5; steady-state equilibrium fit
Method: as §2

CD86-mIgG (Ancell, Inc) [12] = target: T2, CD86-mIgG (Ancell, Inc); test: SPR, CD86-mIgG immobilized; reference of the comparison
[13] = target: T4, CD86 on cells (WIL2-S human B-lymphoblastoid cells; HuCD86-2A2 CHO cells expressing CD86) (human, UniProt P42081 24-329); test: flow cytometry on WIL2-S cells
T4 construct: whole, on cells; also called cell surface CD86
T4 sequence (looked up): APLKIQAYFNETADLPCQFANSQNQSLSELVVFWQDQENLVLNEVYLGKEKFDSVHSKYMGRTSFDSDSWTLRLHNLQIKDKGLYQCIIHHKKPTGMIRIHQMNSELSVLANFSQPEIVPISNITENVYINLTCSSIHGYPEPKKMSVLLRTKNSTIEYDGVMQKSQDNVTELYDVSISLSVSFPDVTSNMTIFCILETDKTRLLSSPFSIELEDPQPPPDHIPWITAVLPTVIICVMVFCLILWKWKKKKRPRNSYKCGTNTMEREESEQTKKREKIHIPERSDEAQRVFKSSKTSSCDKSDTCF
Method: Briefly, WIL2-S or HuCD86-2A2 cells were incubated with test molecules containing a CD86 antagonist at concentrations ranging from saturation to background levels. […] After the incubation, cells were washed and a fluorophore (R-phycoerythrin) tagged F(Ab′)₂ antibody specific for the Fc portion of the xceptor molecule, IL10R-Ig fusion protein, or anti-IL10 antibody. The tagged cells were then passed through a flow cytometer and data was analyzed by plotting median fluorescence intensity of each sample.

[14] = target: T5, PD1 ectodomain fused to a C-terminal AviTag, biotinylated (biotinylated on the AviTag with the BirA enzyme); test: SPR (BIAcore T100), biotinylated PD1 captured on neutravidin; steady-state equilibrium fit
T5 construct: also called biotinylated PD1
T5 chain: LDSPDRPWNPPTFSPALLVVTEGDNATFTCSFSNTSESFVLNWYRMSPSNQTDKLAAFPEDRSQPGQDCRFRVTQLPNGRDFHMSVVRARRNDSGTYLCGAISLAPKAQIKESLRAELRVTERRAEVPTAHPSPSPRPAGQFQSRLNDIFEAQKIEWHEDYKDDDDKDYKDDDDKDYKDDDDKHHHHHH
Method: (§3) SPR measurements were performed on a BIAcore™ T100 SPR (Pharmacia Biotech AB, Uppsala) using HBS-P+ (GE Healthcare) as a running buffer. […] PDL1/2-containing constructs were injected for 120 seconds, at a flow rate of 30 μl/min, in a series of concentrations from 6 nM to 2 μM. Dissociation was monitored for 1200 seconds, and the surface was regenerated by injecting 50 mM NaOH, 1M NaCl for 30 seconds.
(§4) Data were analyzed using BiaEvaluation for the T100 software (version 2.0.1, GE Healthcare).

[15] = target: T5, PD1 ectodomain fused to a C-terminal …; test: SPR (BIAcore T100), biotinylated PD1 captured on neutravidin; bivalent analyte model, first site
Method: as §3, §4

koff (CD86-mIgG (Ancell, Inc) [1]): 0.00018 s⁻¹
kon (CD86-mIgG (Ancell, Inc) [1]): 94100 M⁻¹ s⁻¹
Kd (CD86-mIgG (Ancell, Inc) [2]): 50.6 nM
Second Site ka (CD86-mIgG (Ancell, Inc) [3]): 0.0203 s⁻¹
Second Site kd (CD86-mIgG (Ancell, Inc) [3]): 0.0722 s⁻¹
Molecule: muIL 10-Ig

koff [4]: 0.0418 s⁻¹
kon [4]: 32100 M⁻¹ s⁻¹
Kd (CD86-mIgG (Ancell, Inc) [5]): 670 nM
Second Site ka [6]: 0.00406 s⁻¹
Second Site kd [6]: 0.00706 s⁻¹
Second Site ka [7]: 0.00026 s⁻¹
Second Site kd [7]: 0.00193 s⁻¹
koff (CD86-mIgG (Ancell, Inc) [8]): 0.0091 s⁻¹
kon (CD86-mIgG (Ancell, Inc) [8]): 45100 M⁻¹ s⁻¹
koff [9]: 0.00235 s⁻¹
kon [9]: 90800 M⁻¹ s⁻¹
Kd [10]: 870 nM
Kd [11]: 19.1 nM
B1: xceptor including a CTLA4 ectodomain with the L104E A29Y mutations and an IL10 domain (Fc fusion)
chain: MHVAQPAVVLASSRGIASFVCEYASPGKYTEVRVTVLRQADSQVTEVCAATYMMGNELTFLDDSICTGTSSGNQVNLTIQGLRAMDTGLYICKVELMYPPPYYEGIGNGTQIYVIDPEPCPDSDLEPKSSDKTHTCPPCPAPEAAGAPSVFLFPPKPKDTLMISRTPEVTCVVVDVSHEDPEVKFNWYVDGVEVHNAKTKPREEQYNSTYRVVSVLTVLHQDWLNGKAYACAVSNKALPAPIEKTISKAKGQPREPQVYTLPPSRDELTKNQVSLTCLVKGFYPSDIAVEWESNGQPENNYKTTPPVLDSDGSFFLYSKLTVDKSRWQQGNVFSCSVMHEALHNHYTQKSLSLSPGQRHNNSSLNTGTQMAGHSPNSSPGQGTQSENSCTHFPGNLPNMLRDLRDAFSRVKTFFQMKDQLDNLLLKESLLEDFKGYLGCQALSEMIQFYLEEVMPQAENQDPDAKAHVNSLGENLKTLRLRLRRCHRFLPCENKSKAVEQVKNAFNKLQEKGIYKAMSEFDIFINYIEAYMTMKIRN
notes: the mutations are in the entry

binding result (CD86-mIgG (Ancell, Inc) [12]): binds
binding result [13]: binds
B2: FUN1::IL10 xceptor (Fc fusion)
chain: EVQLQQSGPELEKPGASVKISCKASGYSFTDYNMNWVKQSNGKSLEWIGNIDPYYGGTSYNQKFKGKATLTVDKSSSTAYMQLNSLTSEDSAVYFCARWDYRYDDGRAYYVMDFWGQGTSVTVSSGGGGSGGGGSGGGGSGGGGSELQMTQSPSSLAASAGEKVTMSCKSSQSVLYSSNQKNYLAWYQQKPGQSPKLLIYWASTRESGVPDRFTGSGSGTHFTLTVSSVQAEDLAVYYCHQYLYSWTFGGGTNLEIKRLEPKSSDKTHTCPPCPAPEAAGAPSVFLFPPKPKDTLMISRTPEVTCVVVDVSHEDPEVKFNWYVDGVEVHNAKTKPREEQYNSTYRVVSVLTVLHQDWLNGKAYACAVSNKALPAPIEKTISKAKGQPREPQVYTLPPSRDELTKNQVSLTCLVKGFYPSDIAVEWESNGQPENNYKTTPPVLDSDGSFFLYSKLTVDKSRWQQGNVFSCSVMHEALHNHYTQKSLSLSPGNSLFNQEVQIPLTESYSPNSSPGQGTQSENSCTHFPGNLPNMLRDLRDAFSRVKTFFQMKDQLDNLLLKESLLEDFKGYLGCQALSEMIQFYLEEVMPQAENQDPDIKAHVNSLGENLKTLRLRLRRCHRFLPCENKSKAVEQVKNAFNKLQEKGIYKAMSEFDIFINYIEAYMTMKIRN
notes: anti-CD86 FUN1 scFv - Fc - IL10

Kd [14]: 42 nM
koff [15]: 0.00724 s⁻¹
kon [15]: 165000 M⁻¹ s⁻¹
B3: PDL2-Fc (Fc fusion)
chain: LFTVTVPKELYIIEHGSNVTLECNFDTGSHVNLGAITASLQKVENDTSPHRERATLLEEQLPLGKASFHIPQVQVRDEGQYQCIIIYGVAWDYKYLTLKVKASYRKINTHILKVPETDEVELTCQATGYPLAEVSWPNVSVPANTSHSRTPEGLYQVTSVLRLKPPPGRNFSCVFWNTHVRELTLASIDLQSQMEPRTHPTLEPKSSDKTHTCPPCPAPEAAGAPSVFLFPPKPKDTLMISRTPEVTCVVVDVSHEDPEVKFNWYVDGVEVHNAKTKPREEQYNSTYRVVSVLTVLHQDWLNGKAYACAVSNKALPAPIEKTISKAKGQPREPQVYTLPPSRDELTKNQVSLTCLVKGFYPSDIAVEWESNGQPENNYKTTPPVLDSDGSFFLYSKLTVDKSRWQQGNVFSCSVMHEALHNHYTQKSLSLSPG
